Experimental data taken from patent US20100086538A1 (UCB, published 2010).
Positions count from the first letter of the chain named. In names and notes the source's numbering stands. Several values for one entry are separate records, joined by “and”; a condition that tells them apart may be missing. Identical values can stand only once.

What was measured:
[1] = target: T1, recombinant human IL-17 (R & D systems) (human, UniProt Q16552 20-155, limits assumed); test: cell-based or functional assay
T1 sequence (looked up): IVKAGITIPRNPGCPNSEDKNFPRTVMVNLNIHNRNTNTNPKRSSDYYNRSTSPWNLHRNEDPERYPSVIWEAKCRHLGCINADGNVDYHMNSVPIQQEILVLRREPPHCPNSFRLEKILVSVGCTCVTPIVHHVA

[2] = target: T2, mammalian cell (CHO) derived human IL-17 (human, UniProt Q16552 24-155); test: cell-based or functional assay
T2 sequence (looked up): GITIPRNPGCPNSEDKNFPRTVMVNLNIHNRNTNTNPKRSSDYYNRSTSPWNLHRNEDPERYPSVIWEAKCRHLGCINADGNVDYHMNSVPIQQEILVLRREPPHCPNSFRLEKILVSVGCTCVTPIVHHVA

[3] = target: T1, recombinant human IL-17 (R & D systems); test: BIAcore 3000, antibody captured by anti-human IgG Fc, IL-17 as analyte
Protocol: (§1) BIA (Biamolecular Interaction Analysis) was performed using a BIAcore 3000 (BIAcore AB). Affinipure F(ab′)₂ Fragment goat anti-human IgG, Fc (Jackson ImmunoResearch) was immobilised on a CM5 Sensor Chip via amine coupling chemistry to a capture level of ≈8000 response units (RUs). HBS-EP buffer (10 mM HEPES pH 7.4, 0.15 M NaCl, 3 mM EDTA, 0.005% Surfactant P20, BIAcore AB) was used as the running buffer with a flow rate of 10 μL/min. A 10 μL injection of CA028_{—}497.g2 was used for capture by the immobilised anti-human IgG-F(ab)₂. IL-17 was titrated over the captured CA028_{—}497.g2 at various concentrations at a flow rate of 30 μL/min. The surface was regenerated by a 30 μL injection of 40 mM HCl, followed by a 10 μL injection of 5 mM NaOH.
(§2) Background subtraction binding curves were analysed using the BIAevaluation software (version 3.2) following standard procedures. Kinetic parameters were determined from the fitting algorithm.
(§3) The concentrations of IL-17 from different non-human primate (NHP) species expressed transiently were estimated relative to human IL-17 and these concentrations were then used to determine the affinities of the IL-17s. The affinity was measured at IL-17 concentrations at or below 25 nM. […] The concentration of transient cynomolgus IL-17 and transient marmoset IL-17 was estimated based on equivalent human IL-17 binding.

[4] = target: T3, cynomolgus monkey IL-17 (expressed transiently) (cynomolgus monkey, UniProt A0A2K5TTB0 24-155); test: as above
T3 construct: also called transient cynomolgus IL-17
T3 sequence: T2 sequence (looked up) with T3A, P8S, N34S, I77V, N78K, P104R
Protocol: as §1, §2, §3

[5] = target: T4, marmoset IL-17 (expressed transiently) (marmoset, UniProt A0ACM8QD00 24-153); test: as above
T4 construct: also called marmoset 06073130c; transient marmoset IL-17
T4 sequence: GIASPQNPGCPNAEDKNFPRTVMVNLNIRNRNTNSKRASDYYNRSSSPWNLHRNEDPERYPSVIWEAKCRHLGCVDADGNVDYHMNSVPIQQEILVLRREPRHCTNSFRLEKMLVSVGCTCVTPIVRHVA
Protocol: as §1, §2, §3

[6] = target: T3, cynomolgus monkey IL-17 (expressed …); test: BIAcore 3000, antibody captured by anti-human IgG Fc, IL-17 as analyte; analyte concentration estimated
Protocol: as §1, §2, §3

[7] = target: T4, marmoset IL-17 (expressed transiently); test: as above
Protocol: as §1, §2, §3

[8] = target: T3, cynomolgus monkey IL-17 (expressed …); test: BIAcore 3000, antibody captured by anti-human IgG Fc, IL-17 as analyte; analyte concentration estimated; transient cynomolgus IL-17, concentration estimated
Protocol: as §1, §2, §3

B1: antibody CA028-497.g2 (antibody, human IgG4 S228P, kappa, V domains shown)
VH: EVQLVESGGGLVKPGGSLRLSCAASGVIFSDYYMAWVRQAPGKGLEWVASINFNADISYYRESVKGRFTISRDDSKNTLYLQMNSLKTEDTAVYYCTTDANRQNYDWFAYWGQGTLVTVSS
VL: AIQLTQSPSSLSASVGDRVTITCKASESVSSSMYSYMHWYQQKPGKAPKLLIYRASNLESGVPSRFSGSGSGTDFTLTISSLQPEDFATYYCQQSWTAPRTFGQGTKVEIKR
notes: Humanised IgG4 (S241P) kappa antibody made in CHO cells; also called CA048-497.g2; CA048 497.g2
For B1, the “IC50, inhibition of IL-17 induced IL-6 production in Hela cells” value [1] was 51 ng/mL and 0.34 nM, the “IC50, inhibition of IL-17 induced IL-6 production in Hela cells” value [2] was 103 ng/mL and 0.7 nM and the Kd [3] was 6.28 pM and 6.3 pM. The koff [3] was 7.38e-06 s⁻¹, the kon [3] was 1.86e+06 M⁻¹ s⁻¹ and the koff [4] was 1.68e-05 s⁻¹. It also gave a koff [5] of 1.46e-05 s⁻¹, a Kd [6] of 10.7 pM and a Kd [7] of 12.9 pM. For the same binder, the kon [7] was 1.13e+06 M⁻¹ s⁻¹ and the kon [8] was 1.57e+06 M⁻¹ s⁻¹.
